Assays:
[1] = biological target: integrin αvβ6 ectodomain (immobilized) (human, UniProt P06756 31-992; P18564 22-709)
[2] = biological target: T1, recombinant human integrin αvβ8 ectodomain (human, UniProt P06756 31-992; P26012 43-681); test: cell-based or functional assay
[3] = biological target: T1, recombinant human integrin αvβ8 …; test: cell-based or functional assay; remark: listed apart in the source
[4] = biological target: T1, recombinant human integrin αvβ8 …; test: cell-based or functional assay; remark: listed apart in the source
[5] = biological target: T1, recombinant human integrin αvβ8 …; test: cell-based or functional assay; remark: listed apart in the source
[6] = biological target: T1, recombinant human integrin αvβ8 …; test: cell-based or functional assay; remark: listed apart in the source
[7] = biological target: T2, human integrin αvβ8 on transfected cells (CHO cells stably transfected; HEK 293 cells stably expressing αvβ8) (human, UniProt P06756 31-1048; P26012 43-769); test: flow cytometry on unfixed CHO cells expressing human αvβ8, antibody titrated, hyperbolic least-squares fit (m3 = KD); curves on D00025 [Cont.]
T2 construct: whole, on cells; also called CHO αvβ8 cells; αvβ8 expressing CHO cells
Method: (§1) FIG. 17: Characterization of cell surface binding of humanized affinity optimized anti-αvβ8 antibodies. The cell surface binding affinities of H4C8, H4G9, H4C10, H4G8 compared to HuC6D4F12 expressed as IgG4 (S228P to prevent arm exchange, R409K and L445P to reduce aggregation and to promote stability). […] Cell surface affinity was determined using the least-squares fit model based on the hyperbolic equation y=m1+m2*m0/(m3+m0), where y=MFI at different avb8 concentrations; m0=αvβ8 concentration; m1=MFI with no αvβ8; m2=MFI at saturation; and m3=KD.
(§2) FIG. 18: Binding characteristics of H4C8 of formalin fixed αvβ8 compared to HuC6D4F12 or ADWA11 2.4 (from Pat no. US2020/0079855 A1). CHO αvβ8 expressing cells were fixed in 2% buffered formalin in PBS for 15 min at RT and then stained at the indicated concentrations as described in FIG. 17. The binding affinities to unfixed or formalin fixed cells is shown. Cell surface affinity was determined using the least-squares fit model based on the hyperbolic equation y=m1+m2*m0/(m3+m0), where y=MFI at different αvβ8 concentrations; m0=αvβ8 concentration; m1=MFI with no αvβ8; m2=MFI at saturation; and m3=KD.

[8] = biological target: T2, human integrin αvβ8 on transfected …; test: flow cytometry on CHO cells expressing human αvβ8 fixed in 2% buffered formalin for 15 min, antibody titrated, hyperbolic least-squares fit (m3 = KD); curves on D00025 [Cont.]
Method: as §1, §2

[9] = biological target: T1, recombinant human integrin αvβ8 …; test: yeast-displayed scFv titrated with αvβ8 ectodomain, flow cytometry, hyperbolic fit
Method: After induction and screening of the pooled transformants for scFV expression using anti-V5 (clone SV5), the avb8 ectodomain was incubated with the yeast pool, washed and scFV which bound to αvβ8 were detected using anti-human αv (clone 8β8). After multiple rounds of selection by sorting yeast stained under conditions of increasing stringency (Low Ag concentration, short Kon and long Koff), individual clones were isolated, sequenced and tested for binding affinity. Shown are the sequences of VH and VL pairs enriched in the library. The binding affinities of representative yeast clones was determined using a least-squares fit model based on the hyperbolic equation y=m1+m2*m0/(m3+m0), where y=MFI at different αvβ8 concentrations; m0=αvβ8 concentration; m1=MFI with no αvβ8; m2=MFI at saturation; and m3=KD. […]
We then created a scFV yeast display library (Library 3) with degenerate positions coding for novel amino acids (i.e. not in germline human or mouse Ig sequence databases), back mutations to mouse from clone H1.1, as well as final humanization of Fr4 VH and VL based on the human germline (SEQ ID NO: 29, 30 and 32). […] After induction and screening of the pooled transformants for scFV expression using anti-V5 (clone SV5), the αvβ8 ectodomain was incubated with the yeast pool, washed and scFV which bound to αvβ8 were detected using anti-human αv (clone 8β8). […]

[10] = biological target: T1, recombinant human integrin αvβ8 …; test: MFI against concentration, fit y = m1 + m2*M0/(m3+M0), m3 = KD; paragraph 50 and paragraph 227 give these KD values for the yeast scFv with soluble αvβ8, the legend of FIG. 17 speaks of IgG4 on CHO αvβ8 cells
[11] = biological target: T1, recombinant human integrin αvβ8 …; test: KinExA; antibody format and antigen form not stated

T1 sequence (P06756 31-992 limits assumed, chain 1 of 2): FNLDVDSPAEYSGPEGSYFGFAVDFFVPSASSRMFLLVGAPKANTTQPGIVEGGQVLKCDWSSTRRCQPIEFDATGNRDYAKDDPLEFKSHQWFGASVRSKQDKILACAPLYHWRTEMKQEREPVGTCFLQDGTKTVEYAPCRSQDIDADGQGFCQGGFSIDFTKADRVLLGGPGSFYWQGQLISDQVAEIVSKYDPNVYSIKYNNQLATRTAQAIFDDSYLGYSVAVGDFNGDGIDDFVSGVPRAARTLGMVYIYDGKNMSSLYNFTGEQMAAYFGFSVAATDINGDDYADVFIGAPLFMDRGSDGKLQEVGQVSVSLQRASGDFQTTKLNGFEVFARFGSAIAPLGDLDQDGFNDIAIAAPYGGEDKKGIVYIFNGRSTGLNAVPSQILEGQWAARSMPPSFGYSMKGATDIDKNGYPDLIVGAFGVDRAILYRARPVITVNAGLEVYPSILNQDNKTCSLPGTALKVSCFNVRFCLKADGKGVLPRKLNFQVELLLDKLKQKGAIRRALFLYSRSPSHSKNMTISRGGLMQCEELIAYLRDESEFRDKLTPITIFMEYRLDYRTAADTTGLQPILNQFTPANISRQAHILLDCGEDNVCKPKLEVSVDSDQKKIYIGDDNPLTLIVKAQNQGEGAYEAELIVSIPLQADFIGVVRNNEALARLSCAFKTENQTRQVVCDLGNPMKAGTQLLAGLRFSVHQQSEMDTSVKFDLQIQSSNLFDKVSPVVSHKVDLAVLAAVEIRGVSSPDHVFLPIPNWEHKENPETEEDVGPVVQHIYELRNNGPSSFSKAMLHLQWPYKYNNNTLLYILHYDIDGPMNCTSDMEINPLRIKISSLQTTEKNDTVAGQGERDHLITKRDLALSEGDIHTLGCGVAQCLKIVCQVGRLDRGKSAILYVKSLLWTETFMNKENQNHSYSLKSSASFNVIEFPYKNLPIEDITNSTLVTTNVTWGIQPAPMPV
T1 sequence (P26012 43-681 limits assumed, chain 2 of 2): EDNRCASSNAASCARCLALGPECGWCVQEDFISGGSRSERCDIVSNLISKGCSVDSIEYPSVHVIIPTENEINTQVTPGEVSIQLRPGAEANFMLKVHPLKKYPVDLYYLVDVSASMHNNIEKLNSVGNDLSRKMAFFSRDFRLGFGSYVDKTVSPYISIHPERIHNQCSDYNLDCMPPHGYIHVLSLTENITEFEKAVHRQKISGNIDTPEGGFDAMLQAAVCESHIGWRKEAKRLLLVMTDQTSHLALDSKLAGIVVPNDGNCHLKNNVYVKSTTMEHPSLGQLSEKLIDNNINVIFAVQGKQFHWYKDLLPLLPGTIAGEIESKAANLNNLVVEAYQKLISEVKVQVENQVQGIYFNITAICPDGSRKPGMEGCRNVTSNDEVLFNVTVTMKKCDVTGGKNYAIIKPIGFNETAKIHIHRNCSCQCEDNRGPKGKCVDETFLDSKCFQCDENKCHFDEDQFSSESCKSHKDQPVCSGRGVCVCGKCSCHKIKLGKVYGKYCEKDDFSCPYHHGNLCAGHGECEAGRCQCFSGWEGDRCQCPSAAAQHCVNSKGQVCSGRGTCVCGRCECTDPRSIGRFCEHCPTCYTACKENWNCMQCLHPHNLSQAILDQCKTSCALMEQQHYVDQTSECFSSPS
T2 sequence (P06756 31-1048, chain 1 of 2): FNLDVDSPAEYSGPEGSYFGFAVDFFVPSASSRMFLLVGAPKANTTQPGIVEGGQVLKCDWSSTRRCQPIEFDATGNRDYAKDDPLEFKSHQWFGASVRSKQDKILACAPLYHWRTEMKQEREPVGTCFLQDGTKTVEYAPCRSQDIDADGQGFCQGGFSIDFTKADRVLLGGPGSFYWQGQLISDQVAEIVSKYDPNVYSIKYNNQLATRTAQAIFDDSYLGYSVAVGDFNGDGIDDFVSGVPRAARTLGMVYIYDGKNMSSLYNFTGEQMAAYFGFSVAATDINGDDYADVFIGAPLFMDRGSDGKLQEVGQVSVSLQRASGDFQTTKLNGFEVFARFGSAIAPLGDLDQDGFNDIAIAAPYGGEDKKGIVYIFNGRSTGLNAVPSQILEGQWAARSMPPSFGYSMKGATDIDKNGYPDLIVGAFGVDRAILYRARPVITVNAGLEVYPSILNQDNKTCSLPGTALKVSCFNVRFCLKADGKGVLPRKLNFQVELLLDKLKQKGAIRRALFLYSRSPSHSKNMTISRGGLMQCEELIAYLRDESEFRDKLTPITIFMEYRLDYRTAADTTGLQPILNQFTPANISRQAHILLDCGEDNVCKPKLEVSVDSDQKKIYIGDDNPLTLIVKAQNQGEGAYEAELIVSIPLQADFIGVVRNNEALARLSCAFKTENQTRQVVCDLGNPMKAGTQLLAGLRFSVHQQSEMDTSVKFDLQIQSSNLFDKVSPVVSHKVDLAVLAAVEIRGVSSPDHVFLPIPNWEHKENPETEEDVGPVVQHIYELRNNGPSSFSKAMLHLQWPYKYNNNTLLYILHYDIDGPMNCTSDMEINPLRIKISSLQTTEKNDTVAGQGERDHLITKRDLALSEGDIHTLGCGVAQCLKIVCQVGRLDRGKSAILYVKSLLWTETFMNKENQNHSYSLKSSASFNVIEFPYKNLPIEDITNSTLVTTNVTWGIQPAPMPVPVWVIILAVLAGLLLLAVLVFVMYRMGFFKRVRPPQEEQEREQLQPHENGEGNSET
T2 sequence (P26012 43-769, chain 2 of 2): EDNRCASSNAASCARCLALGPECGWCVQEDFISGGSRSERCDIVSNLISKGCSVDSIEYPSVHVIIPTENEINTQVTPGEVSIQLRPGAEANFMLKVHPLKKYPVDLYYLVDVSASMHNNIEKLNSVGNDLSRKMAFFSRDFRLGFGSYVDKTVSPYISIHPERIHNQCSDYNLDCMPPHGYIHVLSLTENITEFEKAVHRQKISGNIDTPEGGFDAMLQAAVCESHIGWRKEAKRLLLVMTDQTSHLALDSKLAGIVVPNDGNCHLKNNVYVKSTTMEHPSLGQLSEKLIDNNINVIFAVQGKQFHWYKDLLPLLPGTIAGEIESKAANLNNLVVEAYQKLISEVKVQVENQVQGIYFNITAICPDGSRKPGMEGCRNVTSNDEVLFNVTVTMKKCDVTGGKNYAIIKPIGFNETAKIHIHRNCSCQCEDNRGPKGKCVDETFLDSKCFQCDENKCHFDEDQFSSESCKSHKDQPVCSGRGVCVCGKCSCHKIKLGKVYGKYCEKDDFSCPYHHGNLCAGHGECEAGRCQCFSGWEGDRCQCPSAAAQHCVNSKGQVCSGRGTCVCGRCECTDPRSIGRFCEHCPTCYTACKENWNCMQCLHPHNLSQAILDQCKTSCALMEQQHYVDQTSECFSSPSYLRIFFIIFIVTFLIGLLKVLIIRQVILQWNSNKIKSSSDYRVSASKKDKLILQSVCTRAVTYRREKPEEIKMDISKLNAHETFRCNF
Sequence of integrin αvβ6 ectodomain (immobilized) (P06756 31-992, chain 1 of 2): as the sequence (P06756 31-992 limits assumed, chain 1 of 2) above
Sequence of integrin αvβ6 ectodomain (immobilized) (P18564 22-709, chain 2 of 2): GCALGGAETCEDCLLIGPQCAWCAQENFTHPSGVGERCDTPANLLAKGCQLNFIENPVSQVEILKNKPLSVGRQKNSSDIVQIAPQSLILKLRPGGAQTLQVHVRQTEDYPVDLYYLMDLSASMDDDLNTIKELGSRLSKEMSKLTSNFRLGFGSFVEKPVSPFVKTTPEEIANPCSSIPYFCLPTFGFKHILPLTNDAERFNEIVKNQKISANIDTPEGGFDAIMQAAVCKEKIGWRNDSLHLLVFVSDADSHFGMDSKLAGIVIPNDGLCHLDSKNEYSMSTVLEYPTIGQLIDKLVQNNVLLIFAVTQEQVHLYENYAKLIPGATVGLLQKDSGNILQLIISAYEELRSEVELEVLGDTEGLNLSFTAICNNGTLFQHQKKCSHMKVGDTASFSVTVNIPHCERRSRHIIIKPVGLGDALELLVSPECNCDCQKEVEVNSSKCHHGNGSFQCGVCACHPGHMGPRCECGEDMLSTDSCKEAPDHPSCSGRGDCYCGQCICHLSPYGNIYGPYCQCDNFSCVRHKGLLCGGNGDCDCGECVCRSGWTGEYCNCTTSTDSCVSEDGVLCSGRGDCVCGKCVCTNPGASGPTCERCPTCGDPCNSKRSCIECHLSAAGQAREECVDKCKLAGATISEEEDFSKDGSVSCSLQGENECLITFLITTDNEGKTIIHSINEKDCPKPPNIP

Row | Molecule | Kd [7] | Kd [8] | Kd [9] | Kd [10] | other results
1 | 3G9 (anti-β6), mouse IgG2a (antibody) | – | – | – | – | ED50 of the inhibition of αvβ6-mediated TGF-β activation (immobilized human αvβ6, TMLC GARP/L-TGF-β reporter cells) [1]: 0.22 µg/mL
2 | HuF12 IgG2a (antibody) heavy: QIQLVQSGAEVKKPGASVKISCKASGYTFTKYSMHWVRQAPGQGLEWVARINTETGEPTFADDFRGRFTVTLDTSTSTAYLEIRSLRSDDTAVYFCAIFYYGRDTWGQGTTLTVSSASTKGPSVFPLAPSSKSTSGGTAALGCLVKDYFPEPVTVSWNSGALTSGVHTFPAVLQSSGLYSLSSVVTVPSSSLGTQTYICNVNHKPSNTKVDKKIVPRDCGCKPCICTVPEVSSVFIFPPKPKDVLTITLTPKVTCVVVDISKDDPEVQFSWFVDDVEVHTAQTQPREEQFNSTFRSVSELPIMHQDWLNGKEFKCRVNSAAFPAPIEKTISKTKGRPKAPQVYTIPPPKEQMAKDKVSLTCMITDFFPEDITVEWQWNGQPAENYKNTQPIMDTDGSYFVYSKLNVQKSNWEAGNTFTCSVLHEGLHNHHTEKSLSHSPGK VL: EIVMTQSPATLSVSPGERVTMSCKSSQSLLHSRSRKNYLAWYQQKPGQAPRLLIYWASTRESGVPARFSGSGSGTEFTLTISSVQSEDFAVYYCKQSYNLLSFGQGTVLEIKR | – | – | – | – | ED50 of the inhibition of αvβ8-mediated TGF-β activation (immobilized αvβ8, TMLC GARP/L-TGF-β reporter cells) [2]: 0.02 µg/mL; EC50 of inhibition of αvβ8-mediated TGF-β activation [3]: 200 nM; IC50 of the inhibition of TGF-β activation (TMLC GARP/TGF-β1 reporter cells on αvβ8-coated wells) [4]: 0.0922 µg/mL; IC50 (read off the curve) [5]: ~0.3 µg/mL
3 | ADWA11 2.4 antibody (from US2020/0079855 A1) (antibody, V domains shown) VH: EVQLVESGGGLVQPGGSLRLSCAASGFNIKDYYMNWVRQAPGKGLEWVGWIDPDQGNTIYEPKFQGRFTISADTSKNSAYLQMNSLRAEDTAVYYCARRLLMDYWGQGTLVTVSS VL: DIQMTQSPSSLSASVGDRVTITCRSTKSLSHFNGNTYLFWYQQKPGKAPKRLIYYMSSLASGVPSRFSGSGSGTDFTLTISSLQPEDFATYYCQQSLEYPFTFGGGTKVEIKR | 20 nM | 56 nM | – | – | EC50 of the inhibition of αvβ8-mediated TGF-β activation (TMLC GARP/TGF-β luciferase reporter cells on αvβ8-coated wells) [6]: 274 µg/mL
4 | H4C8 scFv displayed on yeast (scFv, V domains shown, scFv in pYD4 on yeast) VH: QVQLVQSGAEVKKPGASVKVSCKVSGYTLTRQSMHWVRQAPGKGLEWMGRINTETGEPTYAQKFQGRVTMTQDTSTDTAYMELSSLRSEDTAVYFCAIFYYGRDTWGQGTTVTVSS VL: EIVMTQSPATLSVSPGERVTLSCRSSQSLLHSRSRKNYLAWYQQKPGQAPRLLIYWASTRETGVPARFSGSGSGTEFTLTISSLQSEDFAVYYCKQSYNLLSFGQGTKVEIKR | – | – | 3.8 nM | 3.76 nM | –
5 | HuF12 scFv displayed on yeast (scFv, V domains shown, scFv in vector pYD4 on yeast; also called HuC6D4F12 scFV) VH: QIQLVQSGAEVKKPGASVKISCKASGYTFTKYSMHWVRQAPGQGLEWVARINTETGEPTFADDFRGRFTVTLDTSTSTAYLEIRSLRSDDTAVYFCAIFYYGRDTWGQGTTLTVSS VL: EIVMTQSPATLSVSPGERVTMSCKSSQSLLHSRSRKNYLAWYQQKPGQAPRLLIYWASTRESGVPARFSGSGSGTEFTLTISSVQSEDFAVYYCKQSYNLLSFGQGTVLEIKR | – | – | 6.7 nM | 6.05 nM | –
6 | HuC6D4F12 (format not stated) (antibody, V domains shown, also called HuF12; huF12) VH: QIQLVQSGAEVKKPGASVKISCKASGYTFTKYSMHWVRQAPGQGLEWVARINTETGEPTFADDFRGRFTVTLDTSTSTAYLEIRSLRSDDTAVYFCAIFYYGRDTWGQGTTLTVSS VL: EIVMTQSPATLSVSPGERVTMSCKSSQSLLHSRSRKNYLAWYQQKPGQAPRLLIYWASTRESGVPARFSGSGSGTEFTLTISSVQSEDFAVYYCKQSYNLLSFGQGTVLEIKR | 2.6 nM | 6.4 nM | – | – | Kd [11]: 0.00236 nM

Source: US20260139057A1 (University of California, published 2026)
